Test in all cases: ITC
Assay [1] concerns the target T1, VcSiaP (Vibrio cholerae, UniProt Q9KR64 23-321).
Assay [2] deals with T1, VcSiaP. The source holds these as a separate data set.
Assay [3] deals with HiSiaP (Haemophilus influenzae, UniProt P44542 24-329).

Read-outs that look alike come from different tables or passages of the source.

T1 sequence (Q9KR64 23-321): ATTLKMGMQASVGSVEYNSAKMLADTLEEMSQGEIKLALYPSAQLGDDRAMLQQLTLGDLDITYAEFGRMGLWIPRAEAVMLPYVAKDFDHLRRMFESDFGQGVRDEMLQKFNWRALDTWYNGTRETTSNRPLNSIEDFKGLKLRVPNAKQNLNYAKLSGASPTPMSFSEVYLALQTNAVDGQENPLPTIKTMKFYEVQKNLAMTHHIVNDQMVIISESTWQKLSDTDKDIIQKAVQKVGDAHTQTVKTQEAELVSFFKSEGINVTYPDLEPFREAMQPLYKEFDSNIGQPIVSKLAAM
Sequence of HiSiaP (P44542 24-329): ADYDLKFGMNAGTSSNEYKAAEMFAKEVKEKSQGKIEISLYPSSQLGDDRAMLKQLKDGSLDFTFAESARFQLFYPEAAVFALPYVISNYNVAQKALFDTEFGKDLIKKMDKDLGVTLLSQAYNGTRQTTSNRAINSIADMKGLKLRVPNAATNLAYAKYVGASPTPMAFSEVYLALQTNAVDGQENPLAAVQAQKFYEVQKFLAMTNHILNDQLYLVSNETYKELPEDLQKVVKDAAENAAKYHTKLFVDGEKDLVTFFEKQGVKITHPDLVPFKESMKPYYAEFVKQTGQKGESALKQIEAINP

B1: VHHVcP #2 (VHH)
VHH: QVQLVESGGRLVQTGGSLRLSCAASGDTFSNYVMGWFRQAPGKEREFVAAISWTGANSYYADSVAGRFTISRDNAKNTVALQMNSLKPEDTAIYYCAADHFHVTHRKYDYWGQGTQVTVSS
For B1, the Kd in assay [1] worked out at 1.97 nM; in assay [2], 5.61 nM; in assay [3], 10700 nM.

The Kd is a measure of binding affinity in units of concentration.

Values taken from publication PMC11585616 (2024).
